According to the supplement of paper PMC9112550, “Optimization of the antimicrobial peptide Bac7 by deep mutational scanning” (BMC Biology, 2022):

Tested on: Escherichia coli TOP10
Assay: shrunken log2 fold change of peptide-encoding DNA abundance (4.5 h post-induction vs induction); higher = less antimicrobial activity (less host growth inhibition)
Conditions: time post-induction: 4.5 h; library: site-saturation at positions 5, 18, 19, 20
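Note: peptides expressed intracellularly from a pBAD plasmid library in pooled LB shake-flask culture, induced with 0.3% L-arabinose, DNA abundance read by NGS, three biological replicates, DESeq2 with apeglm shrinkage.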

Row | Sequence | shrunken log2 fold change
1 | RRIRSRPPRLPRPRPRPNGCPRP | -0.0491
2 | RRIRCRPPRLPRPRPRPLRSPRP | 0.482
3 | RRIRERPPRLPRPRPRPWTRPRP | -0.0974
4 | RRIRKRPPRLPRPRPRPGQYPRP | 0.0797
5 | RRIRRRPPRLPRPRPRPAVKPRP | 0.0474
6 | RRIRCRPPRLPRPRPRPVRAPRP | 0.486
7 | RRIRMRPPRLPRPRPRPRGTPRP | 1.36
8 | RRIRKRPPRLPRPRPRPAWRPRP | 1.18
9 | RRIRTRPPRLPRPRPRPGGTPRP | -0.00579
10 | RRIRIRPPRLPRPRPRPPPMPRP | 0.377
11 | RRIRTRPPRLPRPRPRPHTQPRP | -0.0664
12 | RRIRQRPPRLPRPRPRPLDSPRP | -0.00448
13 | RRIRIRPPRLPRPRPRPTANPRP | -0.149
14 | RRIRPRPPRLPRPRPRPWSYPRP | -0.214
15 | RRIRGRPPRLPRPRPRPCPLPRP | -0.0214
16 | RRIRYRPPRLPRPRPRPLYRPRP | -0.335
17 | RRIRDRPPRLPRPRPRPMRYPRP | 0.104
18 | RRIRSRPPRLPRPRPRPAKFPRP | -0.134
19 | RRIRMRPPRLPRPRPRPWSDPRP | -0.131
20 | RRIRERPPRLPRPRPRPWLQPRP | 0.0293

Row | Sequence | shrunken log2 fold change
21 | RRIRTRPPRLPRPRPRPSVEPRP | 0.0926
22 | RRIRVRPPRLPRPRPRPGMCPRP | 0.00908
23 | RRIRGRPPRLPRPRPRPIAAPRP | 2.9
24 | RRIRMRPPRLPRPRPRPHNVPRP | 0.0515
25 | RRIRTRPPRLPRPRPRPNQWPRP | -0.0389
26 | RRIRMRPPRLPRPRPRPCTRPRP | -0.0828
27 | RRIRTRPPRLPRPRPRPNVAPRP | 0.174
28 | RRIRSRPPRLPRPRPRPQVTPRP | -0.196
29 | RRIRNRPPRLPRPRPRPIDKPRP | -0.0756
30 | RRIRDRPPRLPRPRPRPQGMPRP | -0.00277
31 | RRIRVRPPRLPRPRPRPMFNPRP | -0.4
32 | RRIRCRPPRLPRPRPRPFPDPRP | -0.415
33 | RRIRHRPPRLPRPRPRPVHQPRP | 0.0507
34 | RRIRSRPPRLPRPRPRPTSKPRP | 0.0753
35 | RRIRSRPPRLPRPRPRPNAAPRP | 0.675
36 | RRIRIRPPRLPRPRPRPCHFPRP | -0.131
37 | RRIRSRPPRLPRPRPRPSLFPRP | 0.0853
38 | RRIRHRPPRLPRPRPRPIIDPRP | -0.0219
39 | RRIRSRPPRLPRPRPRPITCPRP | -0.286
40 | RRIRPRPPRLPRPRPRPQDMPRP | -0.39

Row | Sequence | shrunken log2 fold change
41 | RRIRHRPPRLPRPRPRPHLCPRP | -0.0468
42 | RRIRRRPPRLPRPRPRPWTDPRP | -0.131
43 | RRIRMRPPRLPRPRPRPYTTPRP | -0.335
44 | RRIRDRPPRLPRPRPRPFFQPRP | -0.24
45 | RRIRGRPPRLPRPRPRPIANPRP | 0.42
46 | RRIRHRPPRLPRPRPRPSIMPRP | -0.423
47 | RRIRPRPPRLPRPRPRPIALPRP | -0.0697
48 | RRIRARPPRLPRPRPRPWCAPRP | 0.147
49 | RRIRSRPPRLPRPRPRPKKFPRP | -0.222
50 | RRIRMRPPRLPRPRPRPAFCPRP | 0.455
51 | RRIRWRPPRLPRPRPRPWKDPRP | -0.000687
52 | RRIRGRPPRLPRPRPRPNWDPRP | 0.738
53 | RRIRDRPPRLPRPRPRPSNSPRP | -0.365
54 | RRIRFRPPRLPRPRPRPRMFPRP | 0.169
55 | RRIRFRPPRLPRPRPRPCSLPRP | -0.122
56 | RRIRDRPPRLPRPRPRPNGNPRP | -0.169
57 | RRIRRRPPRLPRPRPRPFYFPRP | 0.116
58 | RRIRCRPPRLPRPRPRPWSLPRP | -1.5
59 | RRIRSRPPRLPRPRPRPDPAPRP | 0.45
60 | RRIRTRPPRLPRPRPRPGGPPRP | 0.257
